For one data set, the system named is CYLD. Nature of the data set: CYLD expression up-regulation by bacterial agonists for TLR2.
For a further data set, the system named is Cyld−/− mice. The data set can be described thus: Survival of Cyld−/− mice inoculated with S. pneumoniae after pretreatment. As to conditions: wedelolactone 10 mg/kg intraperitoneally 2 hours before S.p. inoculation. Format: in vivo, mouse. How it is done: (§1) For S. pneumoniae-induced lethal infections in wild type, Cyld^−/−, Mkk3^−/−, and PAI-1^−/− mice, anaesthetized mice were intratracheally inoculated with live S. pneumoniae, S. pneumoniae wild type or pneumolysin mutant lysate, or pneumolysin (“PLY”), at a concentration of 5×10^7CFU per mouse for live bacteria and bacterial lysate and 200 ng/mouse for PLY in all experiments unless otherwise indicated, and saline was inoculated as control. The mice were monitored for lethality every 2 hours for the first 12 hours and every 12 hours for 5 days thereafter. To assess the effect of perturbing p38 MAPK signaling on S. pneumoniae-induced lethality in Cyld^−/− mice, Cyld^−/− mice were pretreated with the p38 inhibitor SB203580 (10 mg/kg, intraperitoneally in Cyld^−/− mice) 2 hours before S. pneumoniae inoculation, and mice were then intratracheally inoculated with S. pneumoniae. To determine the effect of administration of exogenous PAI-1 on S. pneumoniae-induced lethality, mice were intratracheally administered with mouse rPAI-1 (12.5 μg/mouse) or saline as control, followed by S. pneumoniae and PLY inoculation 1 day after PAI-1 administration. For PAI-1 neutralization in Cyld^−/− mice, Cyld^−/− mice were intraperitoneally injected with α-PAI-1 mAb (25 μg/mouse for histological analysis and 50 μg/mouse for lethality) 2 hours before S. pneumoniae inoculation. Mouse IgG was used as control. […] Lung tissues were then subjected to histological analysis and total mRNA and protein extraction. In all Examples, saline was used as a control unless otherwise specified.
To assess the effect of perturbing NF-κB signaling on S.p.-induced lethality in Cyld^−/− mice, Cyld^−/− mice were pretreated with the IKK inhibitor Wedelolactone (10 mg/kg, intraperitoneally) 2 hours before S.p. inoculation, and mice were then intratracheally inoculated with S.p.
(§2) Differences in survival between wild-type, Cyld-deficient (“Cyld^−/−”), Mkk3-deficient (“Mkk3^−/−”), and PAI/−/−deficient (“PAI-1^−/−”) mice after saline, S. pneumoniae, S. pneumoniae lysate, and/or pneumolysin inoculation with or without SB203580, rPAI-1, or α-PAI-1 mAb were determined by Kaplan-Meier analysis. All tests were performed using SPSS14.0 software (SPSS Inc.). All in vivo survival rate data were evaluated by Log Lank test. All other in vivo and in vitro data were evaluated by Student t-test. Statistical significance was accepted at a value of p<0.05.

The next data set addresses T1, TRAF7, Q6Q0C0.
T1 chain: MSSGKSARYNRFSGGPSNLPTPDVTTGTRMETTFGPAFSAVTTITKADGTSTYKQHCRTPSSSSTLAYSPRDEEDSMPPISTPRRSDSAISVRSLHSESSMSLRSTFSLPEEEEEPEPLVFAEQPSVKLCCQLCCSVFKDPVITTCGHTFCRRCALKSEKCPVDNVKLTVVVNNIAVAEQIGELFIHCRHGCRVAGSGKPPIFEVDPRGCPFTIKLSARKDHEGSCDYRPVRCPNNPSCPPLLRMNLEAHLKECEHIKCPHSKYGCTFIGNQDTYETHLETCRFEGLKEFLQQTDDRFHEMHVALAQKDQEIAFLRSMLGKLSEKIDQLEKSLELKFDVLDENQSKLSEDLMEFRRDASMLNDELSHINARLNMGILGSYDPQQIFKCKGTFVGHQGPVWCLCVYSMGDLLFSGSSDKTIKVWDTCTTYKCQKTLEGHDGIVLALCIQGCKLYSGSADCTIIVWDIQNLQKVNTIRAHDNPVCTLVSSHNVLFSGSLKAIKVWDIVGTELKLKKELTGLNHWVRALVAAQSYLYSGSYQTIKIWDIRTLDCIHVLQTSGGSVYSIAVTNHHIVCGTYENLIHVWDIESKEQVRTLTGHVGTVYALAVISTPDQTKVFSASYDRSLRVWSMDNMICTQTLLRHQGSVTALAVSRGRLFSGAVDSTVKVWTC

The target of data set [1] is T2, tumor necrosis factor receptor-associated factor 6, Q9Y4K3.
T2 chain: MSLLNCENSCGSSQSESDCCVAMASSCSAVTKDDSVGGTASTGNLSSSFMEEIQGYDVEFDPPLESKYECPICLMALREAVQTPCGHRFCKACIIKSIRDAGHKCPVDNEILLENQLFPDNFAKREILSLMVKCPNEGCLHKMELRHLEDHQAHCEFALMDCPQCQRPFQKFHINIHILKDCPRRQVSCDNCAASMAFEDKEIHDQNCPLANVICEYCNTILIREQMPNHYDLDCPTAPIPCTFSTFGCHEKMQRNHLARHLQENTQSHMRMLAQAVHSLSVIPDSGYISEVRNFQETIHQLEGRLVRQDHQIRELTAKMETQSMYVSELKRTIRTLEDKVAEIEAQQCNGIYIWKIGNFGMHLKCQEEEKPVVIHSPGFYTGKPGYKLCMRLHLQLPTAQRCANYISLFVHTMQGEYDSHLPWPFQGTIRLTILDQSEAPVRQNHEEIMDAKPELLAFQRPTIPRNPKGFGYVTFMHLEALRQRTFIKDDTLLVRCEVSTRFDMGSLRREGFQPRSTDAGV

The subject of data set [2] is wild type mice. The data set can be described thus: Survival of wild type mice inoculated with S. pneumoniae D39 lysate or PLY after rPAI-1 pre-administration. Format: in vivo, mouse. The note with it: for mortality rate / lethality in mice inoculated with S. pneumoniae: rPAI-1 12.5 μg/mouse intratracheally 1 day before S. pneumoniae D39 lysate. On the procedure:
as §1
Differences in survival between wild-type, Cyld-deficient (“Cyld^−/−”), Mkk3-deficient (“Mkk3^−/−”), and PAI/−/−deficient (“PAI-1^−/−”) mice after saline, S. pneumoniae, S. pneumoniae lysate, and/or pneumolysin inoculation with or without SB203580, rPAI-1, or α-PAI-1 mAb were determined by Kaplan-Meier analysis. All tests were performed using SPSS14.0 software (SPSS Inc.). All in vivo survival rate data were evaluated by Log Lank test. All other in vivo and in vitro data were evaluated by Student t-test. […]

For data set [3] the following is noted: mouse, in vivo, 0.6 mg/kg. On the procedure:
The efficacy of intratracheal administration of rPAI-1 was evaluated by assessing the presence and function of recombinant PAI-1 in mice. It was first determined whether exogenous PAI-1 is evenly distributed in the lungs of mice after intratracheal inoculation of recombinant stable PAI-1. Recombinant stable wild-type PAI-1 was first labeled with fluorescent dyes using an Alexa Flour 488 protein-labeling kit (Molecular Probes, Eugene, Oreg.) (Herbein & Wright, “Enhanced Clearance of Surfactant Protein D During LPS-induced Acute Inflammation in Rat Lung,” Am. J. Physiol. Lung Cell. Mol. Physiol. 281:L268-L277 (2001), which is hereby incorporated by reference in its entirety). Alexa dyes were selected because their magnitude of fluorescence is constant from pH 4 to 10 and they have a low level of photobleaching compared with similar fluorescent dyes used for protein labeling. […]
To determine whether the exogenously inoculated rPAI-1 is also functional, the in vivo functional activity of intratracheally inoculated rPAI-1 was measured in lungs of mice using ELISA kits from Molecular Innovations. […]

In data set [4] the test system is wild type mice. Nature of the data set: Pathological and histological analysis of lungs (alveolar hemorrhage) of wild type mice. Format: in vivo, mouse. The note with it: wild type mice inoculated with rPAI-1. How it is done: For S. pneumoniae-induced lethal infections in wild type, Cyld^−/−, Mkk3^−/−, and PAI-1^−/− mice, anaesthetized mice were intratracheally inoculated with live S. pneumoniae, S. pneumoniae wild type or pneumolysin mutant lysate, or pneumolysin (“PLY”), at a concentration of 5×10^7CFU per mouse for live bacteria and bacterial lysate and 200 ng/mouse for PLY in all experiments unless otherwise indicated, and saline was inoculated as control. The mice were monitored for lethality every 2 hours for the first 12 hours and every 12 hours for 5 days thereafter. To assess the effect of perturbing p38 MAPK signaling on S. pneumoniae-induced lethality in Cyld^−/− mice, Cyld^−/− mice were pretreated with the p38 inhibitor SB203580 (10 mg/kg, intraperitoneally in Cyld^−/− mice) 2 hours before S. pneumoniae inoculation, and mice were then intratracheally inoculated with S. pneumoniae. […]
For histological analysis, dissected lungs were fixed with 10% buffered neutral formalin overnight with rocking followed by routine processing, embedded in paraffin, and sectioned at about 4 μm thickness. […] H&E-stained lung tissue slides were evaluated by light microscopy using Axiovert 40 CFL (Carl Zeiss), and images were recorded with an AxioCam MRC (Carl Zeiss).

A further data set deals with Tlr4−/− mice. Nature of the data set: Survival of Tlr4-deficient mice after pneumolysin inoculation with or without rPAI-1 pre-administration. The data set is classed as in vivo. The note with it: intratracheal PLY with mouse rPAI-1 pre-administration. On the procedure: as §2
To further determine whether exogenous rPAI-1 also reduces mortality rate in Tlr4^−/− mice, Tlr4^−/− mice were intratracheally inoculated with PLY with or without mouse rPAI-1 pre-administration, and viability was assessed.

Regarding MALP-2, the CYLD expression result with CYLD is “up-regulated”.
As to `COc1cc(O)c2c(c1)oc(=O)c1c3cc(O)c(O)cc3oc21` [Wedelolactone], the survival rate entry with Cyld−/− mice is given as “did not greatly alter the survival rate”.
In the case of peptidoglycan, in the data set on CYLD, the CYLD expression result is “up-regulated”.
On the same count and under the same terms, the result for Pam3CSK4 reads “up-regulated”.

B1: deubiquitinating enzyme CYLD (protein)
chain: MSSGLWSQEKVTSPYWEERIFYLLLQECSVTDKQTQKLLKVPKGSIGQYIQDRSVGHSRIPSAKGKKNQIGLKILEQPHAVLFVDEKDVVEINEKFTELLLAITNCEERFSLFKNRNRLSKGLQIDVGCPVKVQLRSGEEKFPGVVRFRGPLLAERTVSGIFFGVELLEEGRGQGFTDGVYQGKQLFQCDEDCGVFVALDKLELIEDDDTALESDYAGPGDTMQVELPPLEINSRVSLKVGETIESGTVIFCDVLPGKESLGYFVGVDMDNPIGNWDGRFDGVQLCSFACVESTILLHINDIIPALSESVTQERRPPKLAFMSRGVGDKGSSSHNKPKATGSTSDPGNRNRSELFYTLNGSSVDSQPQSKSKNTWYIDEVAEDPAKSLTEISTDFDRSSPPLQPPPVNSLTTENRFHSLPFSLTKMPNTNGSIGHSPLSLSAQSVMEELNTAPVQESPPLAMPPGNSHGLEVGSLAEVKENPPFYGVIRWIGQPPGLNEVLAGLELEDECAGCTDGTFRGTRYFTCALKKALFVKLKSCRPDSRFASLQPVSNQIERCNSLAFGGYLSEVVEENTPPKMEKEGLEIMIGKKKGIQGHYNSCYLDSTLFCLFAFSSVLDTVLLRPKEKNDVEYYSETQELLRTEIVNPLRIYGYVCATKIMKLRKILEKVEAASGFTSEEKDPEEFLNILFHHILRVEPLLKIRSAGQKVQDCYFYQIFMEKNEKVGVPTIQQLLEWSFINSNLKFAEAPSCLIIQMPRFGKDFKLFKKIFPSLELNITDLLEDTPRQCRICGGLAMYECRECYDDPDISAGKIKQFCKTCNTQVHLHPKRLNHKYNPVSLPKDLPDWDWRHGCIPCQNMELFAVLCIETSHYVAFVKYGKDDSAWLFFDSMADRDGGQNGFNIPQVTPCPEVGEYLKMSLEDLHSLDSRRIQGCARRLLCDAYMCMYQSPTMSLYK
In the case of B1, in the data set with TRAF7, Q6Q0C0, the NTHi-induced inflammatory response result was “CYLD inhibition of this inflammatory response was achieved via deubiquitinating TRAF6 and TRAF7”; the “ubiquitination of TRAF7” value is “Overexpression of WT CYLD reduced, whereas siRNA knock-down of CYLD enhanced, the ubiquitination of TRAF6 and TRAF7”. Besides, in data set [1], the NTHi-induced inflammatory response result was “CYLD inhibition of this inflammatory response was achieved via deubiquitinating TRAF6 and TRAF7”; the “ubiquitination of TRAF6” value was “Overexpression of WT CYLD reduced, whereas siRNA knock-down of CYLD enhanced, the ubiquitination of TRAF6 and TRAF7”.

B2: rPAI-1: mouse recombinant plasminogen activator inhibitor-1, purchased from Calbiochem; Example 20 uses recombinant stable wild-type PAI-1 (protein, UniProt P22777 23-402, looked up)
Plasminogen activator …: TLPLRESHTAHQATDFGVKVFQQVVQASKDRNVVFSPYGVSSVLAMLQMTTAGKTRRQIQDAMGFKVNEKGTAHALRQLSKELMGPWNKNEISTADAIFVQRDLELVQGFMPHFFKLFQTMVKQVDFSEVERARFIINDWVERHTKGMINDLLAKGAVDELTRLVLVNALYFSGQWKTPFLEASTHQRLFHKSDGSTVSVPMMAQSNKFNYTEFTTPDGLEYDVVELPYQRDTLSMFIAAPFEKDVHLSALTNILDAELIRQWKGNMTRLPRLLILPKFSLETEVDLRGPLEKLGMPDMFSATLADFTSLSDQEQLSVAQALQKVRIEVNESGTVASSSTAFVISARMAPTEMVIDRSFLFVVRHNPTETILFMGQVMEP
For the molecule B2, in the data set on wild type mice [2], the “mortality rate / lethality in mice inoculated with S. pneumoniae” value is “greatly reduced the mortality rate”. Also, the “mortality rate / lethality in mice inoculated with S. pneumoniae” value with wild type mice [2] (listed as recombinant PAI-1) is “protected mice from S.p.-induced lethality”. Moreover, the “mortality rate in mice inoculated with PLY” value in the data set with wild type mice [2] (rPAI-1 12.5 μg/mouse intratracheally 1 day before pneumolysin) is “greatly reduced the mortality rate”. The “distribution of intratracheally inoculated rPAI-1 in the lungs” value in data set [3] is “widely distributed in the lungs”. Further, in the data set with wild type mice [4], the PLY-induced alveolar hemorrhage result was “prevented” and the “S. pneumoniae-induced alveolar (lung) hemorrhage” value is recorded as “prevented”. The “protection from lethal PLY challenge (viability)” value with Tlr4−/− mice is recorded as “fully protected mice from lethal challenge”.

The values above are taken from US8716237B2, “Methods for the treatment or prevention of hemorrhagic conditions” (University of Rochester, priority 2007, dated 2014).
